These results are taken from paper PMC4455283, “Crystal structure of TRIM20 C-terminal coiled-coil/B30.2 fragment: implications for the recognition of higher order oligomers” (Scientific Reports, 2015).

In data set [1] the target is T1, pro-interleukin-1β (UniProt P01584 1-269).
T1 construct: pro-interleukin-1β (uncleaved precursor of IL-1β); Printed mass 31.9 kDa; The FLAG tag is named for the co-immunoprecipitation; also called pro-IL-1β; FLAG-tagged pro-IL-1β; source: purified
Nature of the data set: SPR; TRIM20Δ413 and pro-IL-1β; heterogeneous ligand model; apparent dissociation constants; immobilised partner not told in the text shown. The settings on record: both partners purified. (Surface plasmon resonance follows binding to a sensor surface in real time, without labels.)

Data set [2] deals with the molecule itself. Put plainly: AUC; sedimentation velocity analytical ultracentrifugation at 4 °C.

B1: TRIM20Δ413 (TRIM20 coiled-coil/B30.2 fragment) (domain or fragment, human, UniProt O15553 414-781, looked up)
chain: EVALEHKKKIQKQLEHLKKLRKSGEEQRSYGEEKAVSFLKQTEALKQRVQRKLEQVYYFLEQQEHFFVASLEDVGQMVGQIRKAYDTRVSQDIALLDALIGELEAKECQSEWELLQDIGDILHRAKTVPVPEKWTTPQEIKQKIQLLHQKSEFVEKSTKYFSETLRSEMEMFNVPELIGAQAHAVNVILDAETAYPNLIFSDDLKSVRLGNKWERLPDGPQRFDSCIIVLGSPSFLSGRRYWEVEVGDKTAWILGACKTSISRKGNMTLSPENGYWVVIMMKENEYQASSVPPTRLLIKEPPKRVGIFVDYRVGSISFYNVTARSHIYTFASCSFSGPLQPIFSPGTRDGGKNTAPLTICPVGGQGPD
notes: TRIM20 (pyrin, marenostrin), human, UniProt O15553; construct starting with E414, comprising the CHS (coiled-coil, E414-N586) and B30.2 (E589-G776) domains; Calculated monomer mass printed as 42 737 Da (85.7 kDa dimer); also called CHS-B30.2; TRIM20 C-terminal coiled-coil/B30.2 fragment; source: purified
By stoichiometry N is commonly meant the number of molecules, sites or subunits per partner or assembly. As for B1, in data set [1], the “apparent KD, heterogeneous ligand model, first constant” value came out at 0.7 µM and the “apparent KD, heterogeneous ligand model, second constant” value came to 13.7 µM. Further, the “stoichiometry N” value in data set [2] is 2.
